Experimental data: PMC2276247

Biological target: Recombinant histidine-tagged human WRN (human) (UniProt Q14191)
Sequence (Q14191 whole entry): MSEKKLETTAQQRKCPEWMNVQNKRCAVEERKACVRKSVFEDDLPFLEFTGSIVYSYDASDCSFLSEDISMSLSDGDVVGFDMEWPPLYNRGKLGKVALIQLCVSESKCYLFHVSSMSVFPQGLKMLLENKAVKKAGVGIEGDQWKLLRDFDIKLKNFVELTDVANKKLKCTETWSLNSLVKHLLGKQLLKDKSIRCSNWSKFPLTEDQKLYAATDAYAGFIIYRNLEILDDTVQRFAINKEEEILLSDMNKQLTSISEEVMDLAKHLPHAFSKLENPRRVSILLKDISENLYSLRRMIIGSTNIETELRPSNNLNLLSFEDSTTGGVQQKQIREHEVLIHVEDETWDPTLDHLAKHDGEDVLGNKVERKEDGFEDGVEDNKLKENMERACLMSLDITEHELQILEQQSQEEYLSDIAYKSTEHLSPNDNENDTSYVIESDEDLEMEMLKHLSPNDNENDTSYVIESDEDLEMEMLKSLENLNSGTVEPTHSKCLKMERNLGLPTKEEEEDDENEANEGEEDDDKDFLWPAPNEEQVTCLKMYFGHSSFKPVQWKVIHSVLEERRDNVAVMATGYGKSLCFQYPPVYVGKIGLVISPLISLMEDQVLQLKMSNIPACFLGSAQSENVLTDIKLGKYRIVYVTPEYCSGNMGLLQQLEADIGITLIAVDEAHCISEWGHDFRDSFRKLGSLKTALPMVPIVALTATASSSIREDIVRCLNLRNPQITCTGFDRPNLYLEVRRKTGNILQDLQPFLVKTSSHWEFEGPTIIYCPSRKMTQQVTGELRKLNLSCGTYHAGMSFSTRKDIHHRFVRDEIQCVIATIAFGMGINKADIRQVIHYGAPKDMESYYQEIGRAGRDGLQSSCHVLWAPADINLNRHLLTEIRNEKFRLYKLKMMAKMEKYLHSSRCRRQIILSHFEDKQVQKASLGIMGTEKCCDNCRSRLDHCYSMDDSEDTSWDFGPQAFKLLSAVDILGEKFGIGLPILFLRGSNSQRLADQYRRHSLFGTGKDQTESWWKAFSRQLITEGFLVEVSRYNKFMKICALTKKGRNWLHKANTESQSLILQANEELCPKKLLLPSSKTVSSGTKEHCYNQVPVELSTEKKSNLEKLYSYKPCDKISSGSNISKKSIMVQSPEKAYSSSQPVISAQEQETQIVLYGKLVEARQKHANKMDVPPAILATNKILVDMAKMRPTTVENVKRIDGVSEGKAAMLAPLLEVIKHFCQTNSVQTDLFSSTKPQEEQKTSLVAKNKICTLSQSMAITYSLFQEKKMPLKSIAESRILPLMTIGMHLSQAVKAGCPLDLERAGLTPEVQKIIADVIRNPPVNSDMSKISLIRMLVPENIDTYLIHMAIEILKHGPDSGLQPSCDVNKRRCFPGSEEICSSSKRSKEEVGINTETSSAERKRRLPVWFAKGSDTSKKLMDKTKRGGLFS

WRN helicase activity on a 22 bp forked duplex with p300 in the absence of acetyl CoA, at the highest WRN concentration: 2 fold
Substance: recombinant human p300 (histone acetyltransferase enzyme p300), Q09472 1-2414
